In general, Kd refers to the constant that tells how readily two partners part at equilibrium. High values mean a looser complex, low ones a tighter complex.

In article PMC9858354 (2023) one finds Kd data, which are given here for one molecule.

For this assay, the target named is T1, human C-C motif chemokine receptor-like 2 (CCRL2) isoform b, on HEK-huCCRL2 cells (human, UniProt O00421 1-344).
T1 chain: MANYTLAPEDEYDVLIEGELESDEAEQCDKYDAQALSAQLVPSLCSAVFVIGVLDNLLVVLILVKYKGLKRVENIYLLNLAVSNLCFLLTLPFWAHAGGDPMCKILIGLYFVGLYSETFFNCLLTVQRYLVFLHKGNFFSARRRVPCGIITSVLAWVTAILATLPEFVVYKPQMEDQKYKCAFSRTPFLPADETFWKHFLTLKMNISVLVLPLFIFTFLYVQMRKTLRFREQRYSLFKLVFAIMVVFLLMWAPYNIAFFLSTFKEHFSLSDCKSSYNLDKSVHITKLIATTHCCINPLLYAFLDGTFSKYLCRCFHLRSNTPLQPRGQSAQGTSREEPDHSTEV
In words: SPR. A general note: Surface plasmon resonance follows binding to a sensor surface in real time, without labels.

B1: recombinant active human chemerin (residues 21-157), unlabeled (ligand)
chain: ELTEAQRRGLQVALEEFHKHPPVQWAFQETSVESAVDTPFPAGIFVRLEFKLQQTSCRKRDWKKPECKVRPNGRKRKCLACIKLGSEDKVLGRLVHCPIETQVLREAEEHQETQCLRVQRAGEDPHSFYFPGQFAFS
The molecule B1 displayed a Kd of 7.48 nM.
